Eight molecules from patent US20230331846A1 (INHIBRX, published 2023) can be followed below.

Residue numbers refer to the chain shown, from its start. A value given as a limit tells only on which side of the number the result lay.

To fix the notation:
T1: canine PD-1 (canine)
T1 construct: Expressed full length on transiently transfected 293FS cells; also called full length canine PD-1
T1 chain: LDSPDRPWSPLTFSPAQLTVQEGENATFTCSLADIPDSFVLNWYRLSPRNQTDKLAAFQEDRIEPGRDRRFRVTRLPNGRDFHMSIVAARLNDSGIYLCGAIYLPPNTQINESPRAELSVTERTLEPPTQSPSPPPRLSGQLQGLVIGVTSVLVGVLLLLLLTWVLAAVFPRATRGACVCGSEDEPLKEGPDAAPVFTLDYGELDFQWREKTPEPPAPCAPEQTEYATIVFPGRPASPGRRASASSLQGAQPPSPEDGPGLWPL

B1: PD1-5-Fc xEML-DANA (Fc fusion)
chain: QVTLRESGGGLVQPGGSLRLSCAASGLTFGLYAMTWFRQAPGKDREGISCISSSDGSTIYADSVKGRFTASRDNAKDTMYLQMNNLNPEDTAVYYCATDYETRCDYGLRLRDRTAYWGPGTQVTVKPENGRVPRPPDCPKCPAPGGPSVFIFPPKPKDTLLIARTPEVTCVVVALDPEDPEVQISWFVDGKQMQTAKTQPREEQFAGTYRVVSVLPIGHQDWLKGKQFTCKVNNKALPSPIERTISKARGQAHQPSVYVLPPSREELSKNTVSLTCLIKDFFPPDIDVEWQSNGQQEPESKYRTTPPQLDEDGSYFLYSKLSVDKSRWQRGDTFICAVMHEALHNHYTQKSLSHSPGK
B2: PD1-14-Fc xEML-DANA (Fc fusion)
chain: QVQLQQSGGGLAQAGGSLRLSCAASGRTVSIYAMGWFRQAPGKEREFVAGIGWNGGTTYYADSVEGRFTISRDHAKNTAYLQMNSLKPEDTAVYYCAAQESAAGTLGDYWGRGTQVTVKPGGGGENGRVPRPPDCPKCPAPGGPSVFIFPPKPKDTLLIARTPEVTCVVVALDPEDPEVQISWFVDGKQMQTAKTQPREEQFAGTYRVVSVLPIGHQDWLKGKQFTCKVNNKALPSPIERTISKARGQAHQPSVYVLPPSREELSKNTVSLTCLIKDFFPPDIDVEWQSNGQQEPESKYRTTPPQLDEDGSYFLYSKLSVDKSRWQRGDTFICAVMHEALHNHYTQKSLSHSPGK
notes: Dimer formation is stated only in embodiment language
B3: PD1-13-Fc xEML-DANA (Fc fusion)
chain: QVTLKESGGGLVQAGGSLRLSCAASGRTEIIYAMGWFRQAPGKEREFVAGIGWSGGTTYYADSVEGRFTISRDSAKNTVYLQMRSLKPEDTAVYYCAAQDSVAGTLGDYWGQGTQVTVKPGGGGENGRVPRPPDCPKCPAPGGPSVFIFPPKPKDTLLIARTPEVTCVVVALDPEDPEVQISWFVDGKQMQTAKTQPREEQFAGTYRVVSVLPIGHQDWLKGKQFTCKVNNKALPSPIERTISKARGQAHQPSVYVLPPSREELSKNTVSLTCLIKDFFPPDIDVEWQSNGQQEPESKYRTTPPQLDEDGSYFLYSKLSVDKSRWQRGDTFICAVMHEALHNHYTQKSLSHSPGK
notes: as for B2
B4: PD1-8-Fc xEML-DANA (Fc fusion)
chain: QVQLQQSGGGLVQAGGSLRVSCAASGRTFSSYGMGWFRQAPGKEREFVAAISWSGGTQYYADSAKGRFTISRDNAKNTVYLQMNSLKPEDTAVYYCADYTDYVVYRPQEIGYWGQGTQVTVKPENGRVPRPPDCPKCPAPGGPSVFIFPPKPKDTLLIARTPEVTCVVVALDPEDPEVQISWFVDGKQMQTAKTQPREEQFAGTYRVVSVLPIGHQDWLKGKQFTCKVNNKALPSPIERTISKARGQAHQPSVYVLPPSREELSKNTVSLTCLIKDFFPPDIDVEWQSNGQQEPESKYRTTPPQLDEDGSYFLYSKLSVDKSRWQRGDTFICAVMHEALHNHYTQKSLSHSPGK
B5: czPD1-14v2-Fc xEML-DANA (Fc fusion)
chain: EVQLVESGGGEVKPGGSLRLSCVASGRTVSIYAMGWFRQAPGKEREFVAGIGWNGGTTYYADAVKGRFTISRDNAKNTVYLQMSSLRAEDTAVYYCAAQESAAGTLGDYWGQGTQVTVKPGGGGENGRVPRPPDCPKCPAPGGPSVFIFPPKPKDTLLIARTPEVTCVVVALDPEDPEVQISWFVDGKQMQTAKTQPREEQFAGTYRVVSVLPIGHQDWLKGKQFTCKVNNKALPSPIERTISKARGQAHQPSVYVLPPSREELSKNTVSLTCLIKDFFPPDIDVEWQSNGQQEPESKYRTTPPQLDEDGSYFLYSKLSVDKSRWQRGDTFICAVMHEALHNHYTQKSLSHSPGK
notes: as for B2
B6: czPD1-14v3-Fc xEML-DANA (Fc fusion)
chain: B5 chain with N74H
notes: as for B2
B7: czPD1-14v1-Fc xEML-DANA (Fc fusion)
chain: B5 chain with N54S
B8: cCD19-4A8-Fc (Fc fusion, part only; not given: CD19 binding part, linker, not shown: another chain or arm of the molecule; small tags and cut ends)
Fc: ENGRVPRPPDCPPCPAPEMLGGPSVFIFPPKPKDTLLIARTPEVTCVVVDLDPEDPEVQISWFVDGKQMQTAKTQPREEQFNGTYRVVSVLPIGHQDWLKGKQFTCKVNNKALPSPIERTISKARGQAHQPSVYVLPPSREELSKNTVSLTCLIKDFFPPDIDVEWQSNGQQEPESKYRTTPPQLDEDGSYFLYSKLSVDKSRWQRGDTFICAVMHEALHNHYTQKSLSHSPGK

canine CD64 (canine), sequence (Q7YQJ5 entry or part of it): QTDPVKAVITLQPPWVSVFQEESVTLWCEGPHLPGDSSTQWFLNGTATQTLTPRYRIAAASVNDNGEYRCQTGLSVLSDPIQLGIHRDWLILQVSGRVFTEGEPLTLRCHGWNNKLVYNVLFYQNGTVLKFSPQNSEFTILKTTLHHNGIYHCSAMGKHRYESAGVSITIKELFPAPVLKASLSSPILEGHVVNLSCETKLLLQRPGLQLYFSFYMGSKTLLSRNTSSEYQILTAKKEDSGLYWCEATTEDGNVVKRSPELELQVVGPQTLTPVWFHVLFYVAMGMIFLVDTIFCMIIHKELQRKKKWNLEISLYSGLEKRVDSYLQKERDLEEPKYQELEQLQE

One experiment has as its target T1, canine PD-1. Nature of the experiment: flow cytometry blocking assay: sdAb titrated against 3 nM canine PD-L1-hFc (the blocked ligand) on 293FS cells expressing canine PD-1. The method, then: (§1) Binding of canine PD-1 to PD-L1 in the presence of the sdAbs described in Example 1 was determined as follows. Each sdAb was incubated for 1 hour at room temperature in a PBS buffer, with 3 or 4 nM canine PD-L1-hFc fusion (Sino Biological) and untransfected 293FS cells or transfected 293FS cells expressing full length canine PD-1 (SEQ ID NO: 1). A fluorescent anti-Fc specific secondary antibody was used to detect […] by flow cytometry using an Intellicyte iQue analyzer. Mean fluorescence intensity was plotted for each concentration of sdAb tested.
Background: Flow cytometry measures light scatter and fluorescence of single cells or particles in a stream.
Take B1: the “IC50 (read off the curve)” value is approximately 2 nM.

As for B2, the “IC50 (read off the curve)” value is approximately 2 nM.

Consider B3, for which the “IC50 (read off the curve)” value is approximately 2 nM.

The next experiment concerns the target T1, canine PD-1. Nature of the experiment: flow cytometry, sdAb titrated on 293FS cells expressing canine PD-1 (title: canPD1 binding), anti-canine Fc 647 secondary. The procedure: (§2) Binding of the sdAbs to canine PD-1 was determined as follows. Transiently transfected 293FS cells that express full length canine PD-1 and untransfected 293FS cells were plated at 50,000 cells/well in separate wells. Antibodies were titrated serially diluted 1:3 starting at 400 nM, and detected with anti-canine Fc 647 secondary antibody. Flow cytometric analysis was performed on an Intellicyte iQue analyzer and fluorescence was plotted as median fluorescence intensity.
The EC50 (read off the curve) is the concentration that produces a half-maximal response. A lower EC50 (read off the curve) goes with a more potent agent. As for B1, the “EC50 (read off the curve)” value was approximately 2 nM.

For the molecule B4, the 50% effective concentration (EC50 (read off the curve)) was approximately 2 nM.

On to B2, for which the half-maximal effective concentration (EC50 (read off the curve)) is approximately 2 nM.

Turning to B3, the “EC50 (read off the curve)” value was approximately 2 nM.

Another experiment has as its target T1, canine PD-1. Nature of the experiment: flow cytometry blocking assay: sdAb titrated against 4 nM canine PD-L1-hFc (the blocked ligand) on 293FS cells expressing canine PD-1. The method, then:
as §1
B5: the “IC50 (read off the curve)” value was approximately 6 nM.

Consider B6, for which the “IC50 (read off the curve)” value is approximately 6 nM.

As to B7, the “IC50 (read off the curve)” value is approximately 6 nM.

As to B2, the “IC50 (read off the curve)” value is approximately 6 nM.

The target in a further experiment is T1, canine PD-1. Nature of the experiment: cell-based or functional assay.
As for B5, the “EC50 (nM), CD4 T cells (canine PBMCs, background corrected mean fluorescence intensity)” value worked out at 9.15 nM and the “EC50 (nM), CD8 T cells (canine PBMCs, background corrected mean fluorescence intensity)” value is 27.2 nM.

With B2, the “EC50 (nM), CD4 T cells (canine PBMCs, background corrected mean fluorescence intensity)” value was 1.7 nM and the “EC50 (nM), CD8 T cells (canine PBMCs, background corrected mean fluorescence intensity)” value was found to be 0.764 nM.

A further experiment has as its target canine CD64 (canine) (UniProt Q7YQJ5). Nature of the experiment: flow cytometry, sdAb titrated on 293FS cells transfected with full length canine CD64, anti-canine Fc 647 secondary.
Regarding B8, the EC50 (read off the curve) amounted to 9 nM.

The next experiment concerns the target T1, canine PD-1. Nature of the experiment: flow cytometry on 293FS cells transiently expressing full length canine PD-1. The procedure: as §2
As a reminder, the Kd is a measure of binding affinity in units of concentration. High values mean weaker binding, low ones tighter binding. B1 came in with an equilibrium dissociation constant (Kd) of less than 10 nM.

Consider B4, for which the dissociation constant (Kd) is less than 10 nM.

Molecule B5 gave a dissociation constant (Kd) of 6.65 nM.

Molecule B6 came in with a Kd of 3.24 nM.

Turning to B7, the Kd is 4.15 nM.

In turn, B2 gave a dissociation constant (Kd) of 8.82 nM.

With B3, the Kd is less than 10 nM.
